The values below come from the supplement of paper PMC9112550, “Optimization of the antimicrobial peptide Bac7 by deep mutational scanning” (BMC Biology, 2022).

The test system of the data set is Escherichia coli TOP10. In words: shrunken log2 fold change of peptide-encoding DNA abundance (4.5 h post-induction vs induction); higher = less antimicrobial activity (less host growth inhibition). Conditions: time post-induction: 4.5 h; library: site-saturation at positions 5, 18, 19, 20.
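Note: peptides expressed intracellularly from a pBAD plasmid library in pooled LB shake-flask culture, induced with 0.3% L-arabinose, DNA abundance read by NGS, three biological replicates, DESeq2 with apeglm shrinkage.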

As for RRIRARPPRLPRPRPRPFQPPRP, the “shrunken log2 fold change” value came to 0.0667.
Take RRIRERPPRLPRPRPRPDEEPRP: the “shrunken log2 fold change” value was -0.142.
Under RRIRPRPPRLPRPRPRPLCGPRP stands 0.623.
Consider RRIRFRPPRLPRPRPRPQNQPRP, for which the “shrunken log2 fold change” value was -0.485.
On to RRIRLRPPRLPRPRPRPHDVPRP, for which the “shrunken log2 fold change” value amounted to 0.0205.
Regarding RRIRLRPPRLPRPRPRPLAFPRP, the “shrunken log2 fold change” value is -0.092.
With RRIRVRPPRLPRPRPRPCYFPRP, the “shrunken log2 fold change” value is -0.594.
As for RRIRVRPPRLPRPRPRPIWTPRP, the “shrunken log2 fold change” value is -0.0382.
Regarding RRIRSRPPRLPRPRPRPVYDPRP, the “shrunken log2 fold change” value was -0.227.
Turning to RRIRCRPPRLPRPRPRPYMCPRP, the “shrunken log2 fold change” value was -0.233.
On to RRIRCRPPRLPRPRPRPPCYPRP, for which the “shrunken log2 fold change” value was -0.265.
On to RRIRDRPPRLPRPRPRPAIQPRP, for which the “shrunken log2 fold change” value stood at 0.389.
In the case of RRIRPRPPRLPRPRPRPHRAPRP, the “shrunken log2 fold change” value is 0.402.
Under RRIRMRPPRLPRPRPRPDCRPRP stands 0.134; under RRIRHRPPRLPRPRPRPTHMPRP, -0.065; under RRIRSRPPRLPRPRPRPTYVPRP, -0.098.
Take RRIRGRPPRLPRPRPRPHMWPRP: the “shrunken log2 fold change” value is -0.0527.
As for RRIRKRPPRLPRPRPRPNGRPRP, the figure is 0.131; as for RRIRYRPPRLPRPRPRPLRLPRP, 0.077.
RRIRHRPPRLPRPRPRPHQSPRP: the “shrunken log2 fold change” value was -0.0258.
For RRIRVRPPRLPRPRPRPENHPRP, the “shrunken log2 fold change” value is -0.187.
As for RRIRCRPPRLPRPRPRPSISPRP, the figure is -0.136.
Under RRIRRRPPRLPRPRPRPSFNPRP stands -0.192; under RRIRPRPPRLPRPRPRPIDKPRP, -0.188.
RRIRMRPPRLPRPRPRPVNEPRP: the “shrunken log2 fold change” value was determined as 0.0186.
As for RRIRMRPPRLPRPRPRPMKKPRP, the figure is -0.00637; as for RRIRKRPPRLPRPRPRPDFGPRP, 0.052.
Consider RRIRWRPPRLPRPRPRPRLDPRP, for which the “shrunken log2 fold change” value came to 0.459.
As for RRIRNRPPRLPRPRPRPVIDPRP, the figure is -0.123; as for RRIRDRPPRLPRPRPRPPPDPRP, 1.14; as for RRIRCRPPRLPRPRPRPSASPRP, 0.165.
With RRIRERPPRLPRPRPRPVTYPRP, the “shrunken log2 fold change” value is -0.17.
Consider RRIRVRPPRLPRPRPRPWVLPRP, for which the “shrunken log2 fold change” value came out at 0.054.
For the sequence RRIRRRPPRLPRPRPRPMFYPRP, the “shrunken log2 fold change” value was -0.229.
For the sequence RRIRGRPPRLPRPRPRPKHMPRP, the “shrunken log2 fold change” value came to 0.0797.
For RRIRQRPPRLPRPRPRPCNKPRP, the “shrunken log2 fold change” value came out at 0.0281.
RRIRWRPPRLPRPRPRPNRMPRP: the “shrunken log2 fold change” value worked out at 0.126.
Under RRIRWRPPRLPRPRPRPDQNPRP stands -0.0342.
As for RRIRIRPPRLPRPRPRPFKIPRP, the figure is -0.144; as for RRIRDRPPRLPRPRPRPNNSPRP, -0.422.
As for RRIRYRPPRLPRPRPRPDMAPRP, the figure is -0.255; as for RRIRARPPRLPRPRPRPSNVPRP, -0.248; as for RRIRDRPPRLPRPRPRPNQKPRP, 0.18.
Regarding RRIRCRPPRLPRPRPRPGHHPRP, the “shrunken log2 fold change” value was -0.439.
Under RRIRWRPPRLPRPRPRPTTSPRP stands 0.508.
Take RRIRRRPPRLPRPRPRPEDPPRP: the “shrunken log2 fold change” value came to 0.192.
Turning to RRIRQRPPRLPRPRPRPWGKPRP, the “shrunken log2 fold change” value was -0.103.
For RRIRCRPPRLPRPRPRPYWMPRP, the “shrunken log2 fold change” value was -1.07.
With RRIRERPPRLPRPRPRPDMQPRP, the “shrunken log2 fold change” value was -0.184.
For the sequence RRIRHRPPRLPRPRPRPMRCPRP, the “shrunken log2 fold change” value came out at 0.309.
